Source: the supplement of paper PMC9170038

Tested on: MS2 coat protein
Test: apparent KD of MS2 coat protein; designed switch direction (-1 OFF switch, 1 ON switch): -1; higher = weaker reporter binding
Procedure, shortened: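 On Illumina chips, designed RNA switches with common flanks were made by stalled E. coli RNA polymerase. Titrations with SNAP-549-labelled MS2 coat protein, doubling from 0.7 or 1.5 nM to 3 µM, were done with no input, with 200 uM small-molecule ligand, or with an oligonucleotide input. Apparent KD is the median per design over clusters, from curve fits of normalised cluster fluorescence.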

[1] = input ligand: microRNA oligo, concentration not stated
[2] = Eterna round: R95, input ligand: microRNA oligo, concentration not stated
[3] = Eterna round: R95, input ligand: FMN 200 uM
[4] = Eterna round: R95, input ligand: none

Sequence | apparent KD of MS2 coat protein (input ligand: FMN 200 uM) [µM] | apparent KD of MS2 coat protein (input ligand: none) [µM] | apparent KD of MS2 coat protein [2] [µM] | other results
CUGCUCCGUGUAGGAUAUGCAUACCACCACUAUGCAGAAGGACAUGAGGAUCACCCAUGUAUGUUAUUAUCACGUGUAGCGUCC [Design 18] (Eterna round: R96, puzzle: Exclusion NG 1) | 0.023 | 0.0206 | – | apparent KD of MS2 coat protein [1]: 0.0149 µM
CUAUUCCGAGGAUAUACAUGAGGAUCACCCAUGUCGGGCCUCUGGCCUAAGGCCGAAAGUAGAAGGUGGGUUUC [JL Riri mod 10] (puzzle: Exclusion 3) | – | – | 0.0542 | –
CUAUGUUAGCAGGAUAUGCCAUUAUUCUUUUUCGCAGAAGGGCUUACAUGAGGAUCACCCAUGUUACAUUUCUU [JR_E6_Sub086] (puzzle: Exclusion 6) | – | – | 0.0167 | –
GGCCGUAAUAAGGAUAUCACUAGCUUCGGCUAGUGAGAAGGUAUUACAUGAGGAUCACCCAUGUGAUCAGGCCA [E6/3-B1] (Eterna round: R97, puzzle: Exclusion 6) | 0.726 | 0.17 | – | –
AAUUAAGCAAGCAGAUCCCACAUGAGGAUCACCCAUGUGCUCGUCUUAUAAGGUACUGUGACGAGAGUCACGGUACC [Mat - Sensor, turn-off var - Eli Mod - D70] (Eterna round: R97, puzzle: Sensor, turn-off variant 1) | 0.128 | 0.0971 | – | –
CGAUGCUCGUGUCCACAUGAGGAUCACCCAUGUCGAGUUAGCGAGGAUAUCGGUAACACAUAGUACGAGAAGGCGCGAACCUGA [Ex NG3 #27] (Eterna round: R96, puzzle: Exclusion NG 3) | 0.0525 | 0.0173 | – | apparent KD of MS2 coat protein [1]: 0.0146 µM
AAAAAACAUGAGGAUCACCCAUGUGAGGAUAUGAUGCGAAUAAAGAAAGAAGAAAGCAUCAGAAGGCACAUAUG [Mod of Disincluded 3 (little more stable fmn state)] (Eterna round: R96, puzzle: Exclusion 1) | – | – | – | apparent KD of MS2 coat protein [1]: 0.0666 µM
GCUUGAGCUGUGAGGAUAUUUCGAGUGAAAGCUUGAGAGAAGGCACAUGAGGAUCACCCAUGUAAGGUUCGAGU [-26, -23.9 kcal, A 28%, 1bis-1bis] (Eterna round: R97, puzzle: Brourd's mod of Exclusion 4) | 0.0136 | 0.0132 | – | –
CGUGCGUAUGUGAGGAUAUGCUGGUCCUUGGAUCGGCAGAAGGCACAUGAGGAUCACCCAUGUGGUGUCGUACC [salish99_Bmod_ex4_074] (puzzle: Brourd's mod of Exclusion 4) | – | – | 0.123 | –
AGAAAUGCCCAUGGCCGCAAGCCUUUUGCUUGUCUUACCACAUGAGGAUCACCCAUGUGACAUGGGCUCCUUAUAAU [Verileve] (puzzle: Sensor v3, turn-off variant 2) | – | – | 0.0092 | apparent KD of MS2 coat protein [3]: 0.014 µM; apparent KD of MS2 coat protein [4]: 0.0125 µM
AGAUCCUGAGUCAGGAUAUAGAGGCGGUAGCCUGGCUAGAAGGGACAUGAGGAUCACCCAUGUGGGUUCUUGCC [Gecela] (puzzle: Brourd's mod of Exclusion 4) | – | – | 0.0127 | –
UUGAAAGGUGUAGGAUAUGUAUGAGGAUCACCCAUUAAUAAAUUUUAACCACGAGGAUCACCCGUGUAGAAGGACACCUUUCAA [pwkr exNG2 2xF5 1xFMN.18] (Eterna round: R96, puzzle: Exclusion NG 2) | 0.0369 | 0.0318 | – | apparent KD of MS2 coat protein [1]: 0.018 µM
GAUUGAGAGCAGGAUAUCUUAGAAAUGUAUUAAAGAGAAGGGCUCACAUGAGGAUCACCCAUGUGGUCCUAGAU [JL Dibiri mod 16] (puzzle: Exclusion 6) | – | – | 0.0208 | –
GAUUAUGCGAGCUUUAGGGACAUGAGGAUCACCCAUGUUCGUCUUAUUGAUCUAGGUGCACUAACAUACCUAAAUCU [JMF 34] (puzzle: Sensor v3, turn-off variant 1) | – | – | 0.0412 | apparent KD of MS2 coat protein [3]: 0.024 µM; apparent KD of MS2 coat protein [4]: 0.0277 µM
UAUUAGCAAGUAAGGUCCCACAUGAGGAUCACCCAUGUGCUCGUCUUAUAAGGUACUGUGACGAAAGUCACGGUACC [Sensor 3, v1 - 95] (puzzle: Sensor v3, turn-off variant 1) | – | – | 0.585 | apparent KD of MS2 coat protein [3]: 0.0184 µM; apparent KD of MS2 coat protein [4]: 0.0181 µM
CUUUUGUGAGGAUAUCAGGUGUGCUAGCGUACUGGUACAUCUGAGAAGGCACAUGAGGAUCACCCAUGUUCCUU [JL-ex4-3.18 Brourd mod] (puzzle: Exclusion 4) | – | – | 0.0135 | –
AGGUAGCAAGGAUAUACAACUUUGGGCACUGCCUCUUGGAGACAUGAGGAUCACCCAUGUAGAAGGUGCAGGCC [Tibiarusor] (puzzle: Exclusion 2) | – | – | 0.0117 | –
CUAAUAUAUCAGGAUAUGAUUUUAUGUGUUGGAUCAGAAGGGAUAACAUGAGGAUCACCCAUGUUGUGGAGUGA [JR_Ex6_Sub037] (Eterna round: R97, puzzle: Exclusion 6) | 0.271 | 0.112 | – | –

Sequence | apparent KD of MS2 coat protein (input ligand: FMN 200 uM) [µM] | apparent KD of MS2 coat protein (input ligand: none) [µM] | apparent KD of MS2 coat protein [2] [µM] | other results
AGUAGGAGAGGAUAUACAUGAAGUCGAAAGACUUCGACUCAACAUGAGGAUCACCCAUGUAGAAGGCUCCUACA [Omei Ex2 BD A7] (Eterna round: R97, puzzle: Exclusion 2) | 0.126 | 0.0473 | – | –
GAUUAUGCGAGCUUUAGGGACAUGAGGAUCACCCAUGUUCGUCUUAUUAGUCUAGGUACGCUAACAUACCUAAAUCU [JMF 40] (puzzle: Sensor v3, turn-off variant 1) | – | – | 0.0359 | apparent KD of MS2 coat protein [3]: 0.0202 µM; apparent KD of MS2 coat protein [4]: 0.0228 µM
AUAUUGUGAGGAUAUGAACUUAGUAUCGAAAGAAACUAAGUUCAGAAGGCACAUGAGGAUCACCCAUGUUUCUC [Long static hairpin v10] (Eterna round: R97, puzzle: Exclusion 4) | 0.566 | 0.0632 | – | –
UUUAAUUUUUUUUUUUUACAAGCUUUUUGCUCGUCUUAUACAUGAGGAUCACCCAUGUAAGUGGAAGAUAAAUUAUC [JMF 10] (puzzle: Sensor v3, turn-off variant 2) | – | – | 0.0214 | apparent KD of MS2 coat protein [3]: 0.0182 µM; apparent KD of MS2 coat protein [4]: 0.0165 µM
UGGUAGUUAGGAUAUACAUGAGGAUCACCCAUGUACGGGUGCAGAAAAGAAAGCCUUCGUAGAAGGAACACCUG [Aaredima] (Eterna round: R97, puzzle: Exclusion 3) | 0.0691 | 0.0626 | – | –
UGGUAGUGAGGAUAUCCAAUAUAUGACAUGAGGAUCACCCAUGUUUCCACUCGUACCUCCGGAGAAGGCACAUGGU [Ex5 #54] (Eterna round: R97, puzzle: Exclusion 5) | 0.0676 | 0.0619 | – | –
GCAGCAAAAUUCCAUAAAACCACAUGAGGAUCACCCAUGUCUCAGGAUAUGGUCUGGAUUACAGGCCAGAAGGGAGAAAGCUGC [Eli exng3 - 058] (Eterna round: R96, puzzle: Exclusion NG 3) | 0.0146 | 0.0139 | – | apparent KD of MS2 coat protein [1]: 0.0126 µM
CAACCACAUGAGGAUCACCCAUGUGAGGAUAUGAUACUAUGUACUUCGGUACAUAGUAUCAGAAGGCACAGGUG [Ex1-3: 60] (puzzle: Exclusion 1) | – | – | 0.0832 | –
CAAUACAAGCGAAGAUCCUACAUGAGGAUCACCCAUGUGCUCGUCUUAAAAGGUACUGUGACGAAAGUCACGGUACC [Eli 87 + Mat D67 4] (Eterna round: R97, puzzle: Sensor, turn-off variant 1) | 0.282 | 0.296 | – | –
GAAUAUAAGCAAAGAUCCUACAUGAGGAUCACCCAUGUGCUCGUCUUAUAAAGUACUAUCACGAAAGUGAUAGUACA [Mat - Sensor v3 - turn-off var 1 - Eli Mod - D82] (puzzle: Sensor v3, turn-off variant 1) | – | – | 0.0251 | apparent KD of MS2 coat protein [3]: 0.0899 µM; apparent KD of MS2 coat protein [4]: 0.135 µM
GCAUGUUAUGUCAGGAUAUACCUAUGGAUACAUAGGUAGAAGGGACAUGAGGAUCACCCAUGUCCUAACCAUGC [Fiskers BMX 4 - 22] (puzzle: Brourd's mod of Exclusion 4) | – | – | 0.0114 | –
AUAAUGUCAGGAUAUCAGUCGACUAGCGAUAGCUAGUCGACUGAGAAGGGACAUGAGGAUCACCCAUGUGUUUC [E4/14-A4] (Eterna round: R97, puzzle: Exclusion 4) | 0.00273 | 0.17 | – | –
GAUUGAGAGCAGGAUAUCUUAGAAAUGUAUUAAAGAGAAGGGCUCACAUGAGGAUCACCCAUGUGGUCCUAGAU [JL Dibiri mod 16] (Eterna round: R96, puzzle: Exclusion 6) | 0.306 | 0.0263 | – | apparent KD of MS2 coat protein [1]: 0.0228 µM
CCAAGCUUGUUCAUUAACCACAUGAGGAUCACCCAUGUCUUGGCAAUUAUGACCUGCCCGUCAGGUGCUCGUCUUAU [Sensor-V1 #36] (Eterna round: R97, puzzle: Sensor, turn-off variant 1) | 0.045 | 0.0481 | – | –
AAGUACCGUCACGAUAGUGAUGGUACAACAGGCAGUGAAACAUGAGGAUCACCCAUGUCCUCAAUUGCUCGUCUUAU [Sensor 3 - 77] (puzzle: Sensor v3, turn-off variant 2) | – | – | 0.192 | apparent KD of MS2 coat protein [3]: 0.0776 µM; apparent KD of MS2 coat protein [4]: 0.0987 µM
UAUUAGCAAGUGAGAUCCCACAUGAGGAUCACCCAUGUGCUCGUCUUAUAAGGUACUGUGACGAAAGUCACGGUACC [Sensor 3, v1 - 91 v1] (Eterna round: R97, puzzle: Sensor, turn-off variant 1) | 0.0562 | 0.0476 | – | –
ACAUGAGGAUCACCCAUGUCUGGCUGGUCUGCUCCGGCUGUUGAGGAUAUAGUCCGGUGUUCGCGCUAGAAGGUGAGGGCUGGA [Aenatbe mod 41] (Eterna round: R96, puzzle: Exclusion NG 3) | 0.107 | 0.0773 | – | apparent KD of MS2 coat protein [1]: 0.0495 µM
